Measured values reported in PMC7478166 (Hepatology (Baltimore, Md.), 2020).
Each block holds one molecule with its values, some of them ahead of it.

Key:
Test in all cases: BLI
[1] = biological target: p52Shc lacking the PTB domain (p52ShcΔPTB), terminally biotinylated
[2] = biological target: T1, non-phosphorylated full size p52Shc (treated with alkaline phosphatase) (UniProt P29353-2 1-473, biotin, terminal (end not stated))
T1 sequence (looked up): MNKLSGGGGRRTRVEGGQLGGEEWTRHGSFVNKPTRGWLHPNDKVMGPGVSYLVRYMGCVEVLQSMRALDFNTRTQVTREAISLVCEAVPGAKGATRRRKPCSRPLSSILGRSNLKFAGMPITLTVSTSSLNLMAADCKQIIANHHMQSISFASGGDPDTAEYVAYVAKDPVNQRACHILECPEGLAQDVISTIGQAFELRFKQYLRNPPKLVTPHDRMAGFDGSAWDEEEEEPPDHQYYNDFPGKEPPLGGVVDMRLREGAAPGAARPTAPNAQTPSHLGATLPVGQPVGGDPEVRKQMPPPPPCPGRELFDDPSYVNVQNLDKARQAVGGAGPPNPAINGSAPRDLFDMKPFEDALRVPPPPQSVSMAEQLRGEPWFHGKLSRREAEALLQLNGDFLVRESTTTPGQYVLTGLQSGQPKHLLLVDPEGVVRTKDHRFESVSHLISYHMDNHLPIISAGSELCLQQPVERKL

[3] = biological target: T2, full-length p52Shc, terminally biotinylated (UniProt P29353-2 1-473, biotin, terminal (end not stated))
T2 sequence (looked up): T1 sequence (looked up)

[4] = biological target: T3, p52Shc lacking SH2 domain (p52ShcΔSH2), terminally biotinylated (biotin, terminal (end not stated))
T3 chain: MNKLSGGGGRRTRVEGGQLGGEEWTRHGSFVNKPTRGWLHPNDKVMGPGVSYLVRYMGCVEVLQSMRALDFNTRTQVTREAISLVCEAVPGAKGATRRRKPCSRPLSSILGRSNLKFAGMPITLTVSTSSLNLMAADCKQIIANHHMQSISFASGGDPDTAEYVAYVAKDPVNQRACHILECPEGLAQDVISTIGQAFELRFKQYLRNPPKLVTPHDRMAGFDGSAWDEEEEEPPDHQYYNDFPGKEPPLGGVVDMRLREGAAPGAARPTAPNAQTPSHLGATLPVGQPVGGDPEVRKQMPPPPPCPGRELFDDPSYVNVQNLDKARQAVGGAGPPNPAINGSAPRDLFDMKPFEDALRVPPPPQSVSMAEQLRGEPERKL

- fold weaker affinity than full-length p52Shc [1]: 10 fold
Molecule: p47^phox::His (not biotinylated) (from UniProt P14598 1-390) (natural protein)

- Kd [2]: 780 nM
- Kd [3]: 200 nM
- EC50 [4]: > 50000 nM
B1: p47^phox::His (not biotinylated) (natural protein, UniProt P14598 1-390, looked up)
chain: MGDTFIRHIALLGFEKRFVPSQHYVYMFLVKWQDLSEKVVYRRFTEIYEFHKTLKEMFPIEAGAINPENRIIPHLPAPKWFDGQRAAENRQGTLTEYCSTLMSLPTKISRCPHLLDFFKVRPDDLKLPTDNQTKKPETYLMPKDGKSTATDITGPIILQTYRAIANYEKTSGSEMALSTGDVVEVVEKSESGWWFCQMKAKRGWIPASFLEPLDSPDETEDPEPNYAGEPYVAIKAYTAVEGDEVSLLEGEAVEVIHKLLDGWWVIRKDDVTGYFPSMYLQKSGQDVSQAQRQIKRGAPPRRSSIRNAHSIHQRSRKRLSQDAYRRNSVRFLQQRRRQARPGPQSPGSPLEEERQTQRSKPQPAVPPRPSADLILNRCSESTKRKLASAV
